# Measured values taken from patent US11376333B2, “mTG substrates for covalent conjugation of compounds” (COVALAB, priority 2013, dated 2022).
# Where no end group is shown, it is not given here.
# Legend:
# Format in all cases: biochemical
# [1] = biological target: T1, microbial transglutaminase (mTG) (Streptomyces mobaraensis, UniProt P81453); assay: Colorimetric assay: mTG incorporation of biotinylated peptides into immobilized spermine, apparent Km; settings: spermine plate; for Kmapp: biotin tagged peptides at 160-0 μM, Lineweaver-Burk, nr = peptide not recognized by the enzyme; for reactivity of peptide with mTG (text on Table 3): biotinylated peptides
# T1 construct: purchased Covalab, France opr 0054
# T1 sequence (P81453 77-407): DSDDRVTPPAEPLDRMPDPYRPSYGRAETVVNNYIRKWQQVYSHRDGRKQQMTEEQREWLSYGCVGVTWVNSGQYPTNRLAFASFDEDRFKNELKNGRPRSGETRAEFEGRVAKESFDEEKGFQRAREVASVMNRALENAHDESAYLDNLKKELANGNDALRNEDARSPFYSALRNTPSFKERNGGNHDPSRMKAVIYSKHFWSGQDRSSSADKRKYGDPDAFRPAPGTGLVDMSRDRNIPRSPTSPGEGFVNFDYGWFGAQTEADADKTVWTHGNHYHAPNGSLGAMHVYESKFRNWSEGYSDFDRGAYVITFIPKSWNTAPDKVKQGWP
# Source text: To produce the Covabtest-spm plate, the procedure previously described in Mily et al (2009) was used.
# For the screening of the peptide listed in table 2 (Biotinylated peptides) the inventors used our colorimetric assay to measure transglutaminase 2 (TG2) cross linking activity (Mily et al, 2009) and commercialized under ref opr0033 in which mTG was used instead of TG2 and described in this experience. The principle of the method is based on the transamidation activity of mTG, using covalently coupled spermine to carboxy-substituted polystyrene plates and biotinylated peptides. The assay consists of the incorporation of the glutamine gamma-carboxamide group into the immobilized spermine. The amount of biotinylated peptide bound to the plate, as measured by the activity of streptavidin-peroxidase, is directly proportional to the TG activity. Absorbance was measured at 450 nm using the microplate reader.
# In order to compare the affinity of mTG to the preferred substrate, the peptides were used at different concentrations ranging from 160, 80, 40, 20, 10, 5, 2.5 and 0 μM. Then the apparent Km were determined for each peptide and were calculated by Lineweaver-Burk method (1/Absorbance=f(1/[mTG (μM)]).
# In this experiment, spermine was conjugated into the plate as described in B-II-4. Biotinylated peptides described in table 3 were incubated with mTG at different concentration (160, 80, 40, 20, 10, 5, 2.5 and 0 μM). […] Even if E seems to abolish the reactivity of the peptides this cannot be due to the negative charge only but also to the nature of the amino acides at the position X+1, X+2 and X+3. […] This is confirmed with LN-11Q8Q10 peptide.
# [2] = biological target: T1, microbial transglutaminase (mTG); assay: mTG-mediated incorporation of biotin-X-cadaverine into peptides coupled on Covabtest plate; settings: 15 nmoles peptide coupled to plate, biot-cad 0.1 mg/ml, mTG 10 ng/well
# Protocol: The coupling method was previously described by the Applicant (V. Thomas et al, 2004) and also in the corresponding data sheet of CovAbtest-Plate™ which is commercially available from Covalab (Ref #opr0004). Briefly, in separate tubes a solution mixture containing 150 μM of each peptide dissolved in 10 mM phosphate buffer pH5, 5 mM EDAC and 5 mM NHS was incubated for 30 min under gentle shaking. The resulting activated NHS-carboxyl C-terminal moiety of each peptide (15 nmoles) was used to be conjugated in each well of CovAbtest-Plate™ previously deprotonated during 15 min with 150 μl 0.6% sodium bicarbonate per well. The microtiter plate was then incubated during 2 hrs at room temperature and washed extensively with Tris Buffer Saline.
# For this experiment we used the same procedures described by V Thomas et all (2004) and also in the Covalab's commercialized kit (opr0033). Briefly the Lyophilized transglutaminase was reconstituted in 40 mM tris buffer pH 8 and 50 μl of each mTG at 200 ng/ml and at 40 ng/ml were added in the wells containing 50 μl of biotin-X-cadaverine. The enzymatic mixture was incubated for 15 min at room temperature under gentle shaking. Then the plates were washed 3 times with TBS-Tween20 followed by the addition of 100 μl of diluted HRP labeled streptavidine ( 1/2000 in TBS Tween20, 0.5% BSA) in each well. After 30 min at room temperature and 3 washings in TBS-Tween20, 100 μL of TMB substrate were added and after 5 min the colour development was stopped using 100 μl of 0.5 M sulfuric acid. Absorbances at 450 nm were measured using a microplate reader (Multiskan, Labsystems, Helsinki, Finland).
# To screen the peptide library (Covalab) and identify the putative new substrates of mTG we used Covabtest-peptide (described in B-I-1) in which the peptides were covalently coupled into the plates and the amine substrate Biotin-cadeverine (biot-cad) was free in solution. In this experiment 15 nmoles of each peptide (table 2) were covalently conjugated to microtiter plate and the incorporation of biot-cad (0.1 mg/ml) catalyzed by mTG (10 ng/well) was determined following the experiment described in B-II-1. Among all the peptides tested only few peptides were recognized by mTG as Gln (Q) donor to incorporate biot-cad as shown in the FIG. 1. The enzymatic activity was different between the peptide substrates. […] When Q is replaced by N (peptide HH12N11) no reactivity of the mTG was observed confirming the specificity of the enzyme to Gln donor. Moreover, if the reactivity of the 4 peptides (HH12Q11, DH6Q7, HG14Q11 and WG10Q7) is compared, it can be observed that the reactivity of the Gln depends on its position in the peptide sequence. In the most reactive peptides Q is located at the C-terminal. […]
# [3] = biological target: T1, microbial transglutaminase (mTG); assay: mTG reaction on preferred substrates and Q-to-N mutated analogues; settings: mutated analogue peptides
# Source text: In order to confirm the specificity of mTG reaction on the highly reactive peptide HH12Q11 and its small derivatives DH6N5, the inventors synthesized the mutated analogue peptides in which the Gln donors (Q) were replaced by asparagine (N).
# [4] = biological target: T1, microbial transglutaminase (mTG); assay: mTG incorporation of biot-cad into coated BSA-peptide conjugate, with free-peptide competition; settings: 1 μg/ml coated, mTG 100 ng/ml, biotin-cad 0.1 mg/ml
# Protocol: 2 mg of each peptide was dissolved in 1 ml of deionized water and 150 nmoles were mixed with 0.5 mg BSA solubilized in 50 mM bicarbonate buffer pH9.5. After shaking, glutaraldehyde was added at a final concentration of 0.25% (v/v). The mixtures were kept at room temperature during 16 hrs under gentle shaking. At the end of this incubation time, sodium borohydride was added at a final concentration of 10 mg/ml to stabilize the cross-linking between BSA and the peptides. After 2 hours each mixture of peptide-BSA was dialyzed separately in PBS to remove any free peptides.
# High binding 96 wells-microtiter plates (Costar) were used to immobilize BSA-peptide and to human IgG-peptide conjugates prepared as described in M-4 and M-5. For these experiments, conjugates were prepared at 50 μg/ml in 50 mM sodium carbonate buffer pH 9 and 100 μl of each solution was dispensed in the number of wells needed for the experiment. After overnight incubation at 4° C., the plates were washed extensively with Tris Buffer Saline (TBS) and were ready to be used for TG activity.
# The same procedure was used as described in B-II-1
# In the literature its well known that many proteins are not substrate of transglutaminase even if many glutamine residues are present in their structures (Gorman J J, Folk J E. J Biol Chem. 1984 Jul. 25; 259(14):9007-10). […]
substance,measurement,setting,value
YEIQR [BEST1],Kmapp,[1],0.086 µM
same,reactivity of peptide with mTG (text on Table 3),[1],excellent substrates
"PSVQES (not fully specified; also: biotin tag, site not given here) [bPS6Q3]",Kmapp,[1],nr
"PLVQSH (also: biotin, place not given here) [bPH6Q4]",Kmapp,[1],14.77 µM
HDLMWPDVYSNH [HH12N11],reactivity as Gln donor for mTG incorporation of biot-cad,[2],no reactivity
same,mTG reactivity after replacement of Q by N,[3],abolish totally the enzyme reactivity
GGSPLAQSHGGS (Peptide GS12Q7) [reference compound],reactivity as Gln donor for mTG incorporation of biot-cad,[2],low reactivity
WPDVYSQH (Peptide WH8Q7),reactivity of peptide with mTG (text on Table 3),[1],highly reactive with mTG
WPLMMQD (also: biotin) [bWD7Q7],Kmapp,[1],nr
"HNKSQAL (also: biotin tag, position not given here) [bHL8Q6]",Kmapp,[1],nr
"CHQSYV (also: biotin, place not given here) [bCV6Q3]",Kmapp,[1],nr
"free BSA: non modified bovine serum albumin, control [reference compound]",incorporation of biot-cad by mTG into coated protein,[4],no reactivity
HSQALP [bHP6Q3(A)],Kmapp,[1],nr
DVYSQH (Peptide DH6Q5),reactivity of peptide with mTG (text on Table 3),[1],highly reactive with mTG
"KEEFQPL (also: biotin, place not given here) [bKL7Q5]",Kmapp,[1],nr
"SPLKHQEY (also: biotin, place not given here) [bSY8Q6]",Kmapp,[1],>50.00 µM
"HDLMWPDVYSQH (also: biotin, place not given here) [bHH12Q11]",Kmapp,[1],3.08 µM
"HDLMWPDVYSNH (also: biotin, place not given here) [bHH12N11]",Kmapp,[1],nr
WPDVYSQH (also: biotin) [bWH8Q7],Kmapp,[1],11.40 µM
"DVYSQH (also: biotin, place not given here) [bDH6Q5]",Kmapp,[1],33.10 µM
DVYSNH (Peptide DH6N5),mTG reactivity after replacement of Q by N,[3],abolish totally the enzyme reactivity
FWIQE (Peptide FE5Q4),reactivity of peptide with mTG (text on Table 3),[1],high reactivity with mTG
same,reactivity as Gln donor for mTG incorporation of biot-cad,[2],good substrate for mTG
"DVYSQE (also: biotin, place not given here) [bDE6Q5]",Kmapp,[1],nr
same,reactivity of peptide with mTG (text on Table 3),[1],reactivity seems to be lost
"FWIQE (also: biotin, place not given here) [bFE5Q4]",Kmapp,[1],5.00 µM
"LLTLPSVQEQN (also: biotin, place not given here) [bLN11Q8-10]",Kmapp,[1],172.00 µM
"LLTLPSVSEQN (also: biotin, place not given here) [bLN11Q10]",Kmapp,[1],nr
same,reactivity of peptide with mTG (text on Table 3),[1],inhibit completely the reactivity
WPAQR [BEST4],Kmapp,[1],0.225 µM
same,reactivity of peptide with mTG (text on Table 3),[1],excellent substrates
YEAQK [BEST2],Kmapp,[1],0.114 µM
same,reactivity of peptide with mTG (text on Table 3),[1],excellent substrates
YEVQK [BEST5],Kmapp,[1],0.126 µM
same,reactivity of peptide with mTG (text on Table 3),[1],excellent substrates
YEAQR [BEST3],Kmapp,[1],0.08 µM
same,reactivity of peptide with mTG (text on Table 3),[1],excellent substrates
"DVYSNH (also: biotin, place not given here) [bDH6N5]",Kmapp,[1],nr
"VWRSQYF (also: biotin, place not given here) [bVF7Q5]",Kmapp,[1],nr
